What was measured:
Assay in all cases: purified protein
Format in all cases: biochemical, Phormidium nigroviride
Conditions in all cases: 50 mM Tris-HCl pH 8.0, 30 °C, 3 μg/mL enzyme, 25-175 μM substrate
purified protein [1] = substrate: CCCCC/C=C\C/C=C\C/C=C\C/C=C\CCCC(=O)O
purified protein [2] = substrate: CC/C=C\C/C=C\C/C=C\C/C=C\C/C=C\CCCC(=O)O
purified protein [3] = substrate: CC/C=C\C/C=C\C/C=C\C/C=C\C/C=C\C/C=C\CCC(=O)O

B1: Osc-LOX (Phormidium nigroviride PCC 7112) (protein)
chain: MVDNMKPSLPQDDPNQEQRKDSLNRQQQAYQFDYESLSPLALLKNVPAVENFSSKYIGERILATSELPANMLAADSRTFLDPLDELQDYEDFFTLLPLPAVAKIYQTDRSFAEQRLSGANPMVLRLLDAGDPRAQTLAQISSFHPLFDLGQELQQKNIYVADYTGTDEHYRAPSKIGGGSYEKGRKFLPKPRAFFAWRWTGIRDRGEMTPIAIQLDPTPDSHVYTPFDPPVDWLFAKLCVQVADANHHEMSSHLGRTHLVMEPIAIVTARQLAQNHPLSLLLKPHFRFMLTNNELARSYLIAPGGPVDELLGGTLPETMEIAREACSTWSLDEFALPAELKNRGMDDTNQLPHYPYRDDGLLLWDAIETFVSGYLKFFYPTEIAIVQDVELQTWAQELASDRGGKVKGMPPRINTVEQLIKIVTTIIFTCGPQHSAVNFPQYEYMSFAANMPLAAYRDIPKITASGNLEVITEKDILRLLPPYKRAADQLKILFTLSAYRYDRLGYYDKSFRELYRMSFDEVFAGTPIQLLARQFQQNLNMAEQKIDANNQKRVIPYIALKPSLVINSISM
notes: N-terminal His6 tag (pET-28a, NdeI/XhoI) kept; codon-optimized synthetic gene; E. coli BL21(DE3)
Purified protein [1]
  Km: 68.9 ± 3.5 µM
  kcat: 19.6 ± 0.277 s⁻¹
  kcat/Km: 285000 ± 10000 M⁻¹ s⁻¹
Purified protein [2]
  Km: 67.0 ± 3.6 µM
  kcat: 15.6 ± 0.452 s⁻¹
  kcat/Km: 233000 ± 6670 M⁻¹ s⁻¹
Purified protein [3]
  Km: 63.9 ± 4.8 µM
  kcat: 13.9 ± 0.348 s⁻¹
  kcat/Km: 218000 ± 11700 M⁻¹ s⁻¹

Reference: PMC7606508, “Synthesis of two new lipid mediators from docosahexaenoic acid by combinatorial catalysis involving enzymatic and chemical reaction” (Scientific Reports, 2020)
